Target: T1, PSGL-1-NH2/CD34-COOH (UniProt Q14242 18-117; P28906 30-385)
T1 construct: range mature amino terminus-117;range 30-end (end not numbered), on cells; Cotransfected with FTVIIh; also called PSGL-1 apical domain on CD34
T1 sequence: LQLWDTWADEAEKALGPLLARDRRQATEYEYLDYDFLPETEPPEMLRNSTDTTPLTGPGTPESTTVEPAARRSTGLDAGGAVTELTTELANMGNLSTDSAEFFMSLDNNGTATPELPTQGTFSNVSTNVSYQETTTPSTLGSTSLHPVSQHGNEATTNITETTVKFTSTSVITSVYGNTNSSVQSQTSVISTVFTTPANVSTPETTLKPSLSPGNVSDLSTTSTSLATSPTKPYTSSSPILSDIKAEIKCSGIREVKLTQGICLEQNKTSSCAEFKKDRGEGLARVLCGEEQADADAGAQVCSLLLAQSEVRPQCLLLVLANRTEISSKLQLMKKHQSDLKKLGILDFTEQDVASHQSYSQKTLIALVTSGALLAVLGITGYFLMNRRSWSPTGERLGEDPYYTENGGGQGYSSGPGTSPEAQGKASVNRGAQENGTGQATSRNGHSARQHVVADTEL
Experiment: adhesion of 51Cr-labelled transfected COS cells to immobilized P-selectin:Ig
Protocol: To assess the importance of these residues, the tyrosines were converted to phenylalanine (FIG. 9A). In a second peptide, the threonines were converted to alanines. In addition, a third peptide, containing a quintuple mutation, was prepared such that both conversions were made in a single peptide. […] Cells expressing the resulting chimeras were tested for their ability to bind to immobilized P-selectin (FIG. 9A). […] Expression of the flu tag or sLe^x epitope was not affected in these cells.

B1: P-selectin:immunoglobulin fusion protein (Fc fusion, UniProt P16109 42-321, looked up)
chain: WTYHYSTKAYSWNISRKYCQNRYTDLVAIQNKNEIDYLNKVLPYYSSYYWIGIRKNNKTWTWVGTKKALTNEAENWADNEPNNKRNNEDCVEIYIKSPSAPGKWNDEHCLKKKHALCYTASCQDMSCSKQGECLETIGNYTCSCYPGFYGPECEYVRECGELELPQHVLMNCSHPLGNFSFNSQCSFHCTDGYQVNGPSKLECLASGIWTNKPPQCLAAQCPPLKIPERGNMTCLHSAKAFQHQSSCSFSCEEGFALVGPEVVQCTASGVWTAPAPVCKA
notes: domain: lectin, EGF-related, and first two short consensus repeat related domains; Made in COS cells; captured from supernatant on wells coated with goat anti-human IgG Fc; also called soluble P-selectin; P-selectin Ig chimera; not shown: hinge, CH2, and CH3 domains of human IgG1
B1: binds.
